Measurements published in US12624096B2, “Anti-tau antibodies and methods of use thereof” (GTInvent Limited, priority 2020, dated 2026).
“Also recorded” adds a separate entry of the source.

Experiments:
[1] = molecular target: hT40 (Homo sapiens, UniProt P10636); assay: Sandwich ELISA, limits of detection (LoD) of antibody pairs; type: binding; conditions: S1D12 mAb capture
Description: Full length tau (hT40), at 1 μg/ml starting concentration was added to designated wells and double diluted across rest of the plates and left to incubate at R/T for 1 h. A series of detection scAbs with varying epitope recognition properties were added at 10 μg/ml to designated wells (FIG. 22). For colourimetric detection HRP conjugated anti-HuCk secondary antibody was used and the resulting immunoreaction was developed and absorbance at 450 nm measured as described previously. Cut-off point for a positive binding event was an absorbance value of 0.3 following background subtraction. In order to enhance the assay sensitivity, a chemiluminescent detection method was adopted where 50 μL SuperSignal ELISA Femto Substrate (Thermo Scientific) was added to each well following incubation with anti-HuCK HRP antibody and subsequent washing. The luminescence was read using Clariostar Plus microplate reader. A further modification to this protocol was done where various detection scAbs were directly conjugated with HRP and detected using chemiluminescent protocol as before. The lowest levels of detection achieved using different detection scAbs and a comparison of colourimetric and chemiluminescent methods of detection are shown in Table 28
The assay was conducted using chemiluminescent protocol described above.

[2] = molecular target: dGA (Homo sapiens, UniProt P10636); assay: Biacore X100 SPR, scAb captured via anti-HuCk, dGA as analyte; type: binding; conditions: dissociation rate
Sequence of dGA (P10636 614-707): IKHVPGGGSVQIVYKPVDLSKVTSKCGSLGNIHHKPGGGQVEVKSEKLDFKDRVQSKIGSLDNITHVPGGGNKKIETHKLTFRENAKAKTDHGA
Description: Surface plasmon resonance (SPR) is widely regarded as the gold standard for real time measurement of protein-protein interactions such as antibody binding. All SPR experiments were carried out using a Biacore X100 machine and HBS EP+ running buffer (GE Healthcare). A ‘capture’ method was followed for affinity measurements, where an anti-human constant kappa chain (HuCk) antibody was conjugated to the surface of a CM5 sensor chip using an amine coupling kit and scAb molecules were immobilised via their HuCk domain. Amine coupling is a very common approach for immobilising the ligand to the chip surface. The chip surface has a dextran matrix derivatised with carboxyl groups, which after activation with N-hydroxysuccinimide (NHS) and 1-ethyl-3-(3-dimethylaminopropyl) carbodiimide (EDC), form reactive succinimide esters which allows the covalent capturing of the ligand via any available primary amine groups (e.g. Lysine) on the ligand (in this case anti-HuCk antibody). The capture antibody was diluted 1/100 in 10 mM Sodium acetate buffer pH 5.0 and passed over the activated chip surface for a period of at least 420 s. Final ligand immobilisation levels over 12,000 RU were deemed to be satisfactory.
Following immobilisation, the level of each scAb to be captured was identified using the standard SPR equation with a theoretical RMax of 100 RU. Analyte MW refers to the molecular weight of hT40 or dGA/dGAE molecules, while ligand MW refers to the molecular weight of the scAbs tested. RL is the desired capture level and S refers to the stoichiometric ratio:
The scAb to be tested was added only to flow cell 2 so that flow cell 1 could act as a control to subtract any interaction with the analyte and the chip surface. Both single and multi-cycle runs were utilised using wizards developed in the Biacore X100 control software which are both accepted methods of kinetic analysis (Karlsson, R., et al. Analyzing a kinetic titration series using affinity biosensors (2006) Analytical Biochemistry 349:136-47). The multi-cycle protocol was as follows-Three start-up cycles composed of an initial capture, to the desired level, of the scAb to be tested was performed followed by a 30 s injection of glycine buffer pH 2.0 after each cycle to regenerate the chip surface. The regeneration step removed any captured scAb whilst leaving the capture antibody intact and able to repeat the capture for the next cycle. Following three start-up cycles increasing concentrations (0.15625 nM-100 nM) of the target to be tested were added to the chip surface after the desired scAb capture. The target was added for a 120 s association period and 420 s dissociation period followed by another regeneration, 30 s injection of glycine buffer pH 2.0 in between each cycle.
The single cycle kinetics protocol was similar and utilised the same level of scAb capture. Three start-up cycles were used followed by 5 increasing concentrations of the analyte (6.25 nM-100 nM) for an association period of 120 s followed by a dissociation period of 420 s for each concentration. In single cycle kinetics the regeneration step was performed only after the final analyte concentration was added. Binding responses were analysed in Biacore X100 evaluation software and data fitted to a 1:1 binding model to obtain kinetic and affinity characterisation.

[3] = molecular target: dGAE (Homo sapiens, UniProt P10636); assay: dGAE fibril assembly, transmission electron microscopy; type: biochemical; conditions: dGAE:antibody 4:1 or 1:1, 700 rpm, 37° C., 3 days
Sequence of dGAE (P10636 614-708): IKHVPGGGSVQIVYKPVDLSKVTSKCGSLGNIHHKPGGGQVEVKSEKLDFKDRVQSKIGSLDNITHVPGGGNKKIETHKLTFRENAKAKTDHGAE
Description: dGAE protein was diluted into 10 mM phosphate buffer, pH 7.4 (PB) with monoclonal antibody s1D12 at a ratio of 4:1 protein: Ab (100 μM dGAE+25 μM s1D12 and 10 μM dGAE+2.5 μM s1D12) or 1:1 (25 μM dGAE+25 μM s1D12).
As a positive control, dGAE was prepared at a final concentration of 10, 25 or 100 μM in 10 mM PB. Negative controls consisted of dGAE with a non-tau IgG antibody at a ratio of 4:1 (10 μM dGAE+2.5 μM anti-ovalbumin), or antibody alone (25 or 2.5 μM s1D12 and 2.5 μM anti-ovalbumin). Samples were agitated at 700 rpm at 37° C., for 3 days.
Transmission electron microscopy (TEM), circular dichroism (CD) and Thioflavin S (ThS) assays were performed as detailed in Al-Hilaly et, al. (2018) J. Mol. Biol. 430, 4119-4131. Briefly, TEM grids were prepared by adding 4 μL of sample to a carbon-coated grid followed by a wash with milli-Q filtered water then staining twice with 2% uranyl acetate. Grids were air dried and then imaged using a JEOL electron microscope operating at 80 kV.

Sequence of hT40 (P10636 1-441 isoform P10636-8): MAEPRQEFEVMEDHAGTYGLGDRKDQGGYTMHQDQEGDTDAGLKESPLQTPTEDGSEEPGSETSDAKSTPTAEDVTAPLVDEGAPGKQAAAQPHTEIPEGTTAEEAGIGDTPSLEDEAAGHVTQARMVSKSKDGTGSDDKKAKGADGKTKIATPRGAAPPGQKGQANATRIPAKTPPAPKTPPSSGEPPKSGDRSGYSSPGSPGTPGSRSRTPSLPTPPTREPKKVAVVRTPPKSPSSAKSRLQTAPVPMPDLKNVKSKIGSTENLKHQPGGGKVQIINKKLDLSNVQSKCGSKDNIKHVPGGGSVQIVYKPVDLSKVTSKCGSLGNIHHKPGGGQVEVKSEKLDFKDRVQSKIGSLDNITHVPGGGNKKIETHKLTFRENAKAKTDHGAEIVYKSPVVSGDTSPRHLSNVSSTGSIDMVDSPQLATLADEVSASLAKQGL

Row | Molecule | LoD direct HRP conjugation of detection scAb & chemiluminescence [1] | Kd [2] | dGAE fibrils observed by TEM [3]
1 | S1G2: anti-tau clone, SEQ ID NO: 81 (protein, S1G2 amino acid sequence) scFv: QVQLQESGPSLVKPSQTLSLTCTVSGFSLTSNSVGWVRQAPGKAPEWVAGIDTDGEEGYNPALNSRLSITRDTSKSQVSLSLSSVTSEDTAVYYCGRSYRADGLAYGYVQAIDYWGPGLLVTVSSEGKSSGASGESKVDDQAVVTQPSSVSGSLGQRVSITCSGSFIGISSVGWFQQLPGSGLRTIIVASDGRPSGVPDRFSMSKSGNTATLTISSLQAEDEADYFCGSSDRTPYTGVFGSGTRLTVLG | 0.04 ng/mL | 0.0003499 s⁻¹ | 
2 | S1D12: anti-tau clone from immunised sheep, SEQ ID NO: 32 (protein, S1D12 amino acid sequence) scFv: QVQLQESGPSLVKPSQTLSLTCTVSGFSLNNNAVGWVRQAPGKVPESLVGCSSDGTCYYNSALKSRLDITRDTSKNQISLSLSSVTTDDAAVYYCTRGHYSIYGYDYLGTIDYWGPGLLVTVSSEGKSSGASGESKVDDQAVLTQPSSVSGSLGQRVSITCSGSSSNVGGGNSVGWYQHLPGSGLKTIIYDTNSRPSGVPDRFSGSRSGNTATLTINSLQAEDEGDYYCVTGDSTTHDDLVGSGTRLTVLG |  | 0.000418 s⁻¹ | no fibrils were present; also recorded: no fibril formation is observed
